From patent US20220049012A1 (NAVI BIO THERAPEUTICIS, published 2022)
Positions count from the first letter of the chain named.

B1: NAVICA9S1 (scFv, V domains shown)
VH: AVTLDESEGGLQTPGGALSLVCKASGFTFSSYAMNWVRQAPGKGLEFVAGITNTGSSAGYGAAVKGRATISRDNGQSTVRLQLNNLRAEDTATYFCTKSYGGWCDHACAPDDIDTWGHGTEVIVSS
VL: ALTQPSSVSANPGETVKITCSGGGKNYGWYQQKSPGSAPVTVIYLNDKRPSNIPSRFSGSKSGSTHTLTITGVQAEDEAVYFCGSRDSSPTFGAGTTLTVL
notes: Chicken scFv from phage display, expressed in E. coli; also called anti-CAIX scFv NAVICA9S1; clone NAVICA9S1; not shown: linker; tags from the pComb3X vector (purified on Ni2+ Sepharose, detected with anti-HA)
B2: NAVICA9S2 (scFv, V domains shown)
VH: AVTLDESGGGLQTPRGALSLVCKASGFTFSSFNMFWVRQAPGKGLEYVAAISSDGSRSRYGSAVQGRATISRDNGQSTVRLQLNSLRAEDTGTYYCAKRPYSGCTSNNFCFNAAYIDVWGHGTEVIVSS
VL: ALTQPSSVSANLGETVEITCSGSSGSYGWYQQKSPGSAPVTVIYYNDKRPSDIPSRFSGSKSGSTGTLTITGVQAEDEAVYYCGSADRSGAGIFGAGTTLTVL
notes: Chicken scFv; also called anti-CAIX scFv NAVICA9S2; clone NAVICA9S2; not shown: linker; tags from the pComb3X vector (purified on Ni2+ Sepharose, detected with anti-HA)
B3: NAVICA9L3 (scFv, V domains shown)
VH: B2 VH with R15G
VL: B2 VL
notes: Chicken scFv; also called anti-CAIX scFv NAVICA9L3; clone NAVICA9L3; not shown: linker; tags from the pComb3X vector (purified on Ni2+ Sepharose, detected with anti-HA)
B4: NAVICA9L2 (scFv, V domains shown)
VH: AVTLDESGGGLQTPGGGLSLVCKASGFTFSSYAIQWVRQAPGKGLEWVAGISDDGSWTGYGAAVKGRATISRDNGQSTMRLQLNNLRAEDTGIYYCAKGAGTGYCANRSFGCASTIDAWGHGTEVIVSS
VL: B2 VL with S24R, D47V
notes: Chicken scFv; also called anti-CAIX scFv NAVICA9L2; clone NAVICA9L2; not shown: linker; tags from the pComb3X vector (purified on Ni2+ Sepharose, detected with anti-HA)

Columns and labels:
[1] = target: recombinant CAIX extra-cellular domain (UniProt Q16790 38-414); test: competitive ELISA (Friguet), soluble CAIX ECD against coated CAIX ECD
Method: To determine the binding affinity of the anti-CAIX scFvs, competitive ELISA was performed. The CAIX ECD fragment proteins in 2-fold serial dilution (100-13 μg/ml) were pre-incubated with anti-CAIX scFvs (NAVICA9S1: 0.62 μg/ml, NAVICA9S2: 0.32 μg/ml,
NAVICA9L2: 0.16 μg/ml, NAVICA9L3: 0.32 μg/ml) at 1:1 volume ratio at room temperature for 1 hour. The mixtures were then added into ELISA plate coated with CAIX ECD fragment proteins (0.25 or 0.5 μg/well). After 1 hour incubation, the mouse anti-HA IgG (1:5,000) and HRP-conjugated rabbit anti-mouse IgG (1:10,000) were added as the secondary and third antibodies. Following the incubation and washing, 3,3′,5,5′-Tetramethylbenzidine (TMB) was added for color development, which was stopped by HCl and detected using an ELISA plate reader. The Kd values of scFvs were estimated and expressed by molarity (M) as described by Friguet et al. (J. Immunol. Methods, 77: 305-319, 1985). N/A: not available.

[2] = target: recombinant CAIX fragment 2 (UniProt Q16790 154-353); test: binding to recombinant CAIX fragments, epitope mapping
[3] = target: T1, recombinant CAIX fragment 3 (UniProt Q16790 228-414, limits assumed); test: as above
T1 construct: domain: fragment 3(F3); Expressed in E. coli from pET-21a(+) or pET-32a(+); also called F3; CAIX F3

Row | Binder | Kd [1] [nM] | binding result [2] | binding result [3]
1 | B1 | 64.3 |  | 
2 | B2 | 11.5 |  | 
3 | B3 | 9.26 |  | 
4 | B4 | 140 | no binding | no binding
